Assay results as given in patent US7745159.

Experiments:
[1] = molecular target: antigen defined by MAb OV569 on human carcinoma cell surfaces (human); assay: flow cytometry, OV569 supernatant on lung carcinoma line H2981, against an irrelevant MAb
[2] = molecular target: antigen defined by MAb OV569 on human carcinoma cell surfaces (human); assay: flow cytometry, OV569 supernatant on lung carcinoma line H2987, against an irrelevant MAb
[3] = molecular target: antigen defined by MAb OV569 on human carcinoma cell surfaces (human); assay: flow cytometry, OV569 supernatant on lung carcinoma line H3754, against an irrelevant MAb
[4] = molecular target: antigen defined by MAb OV569 on human carcinoma cell surfaces (human); assay: flow cytometry, OV569 supernatant on lung carcinoma line H3776, against an irrelevant MAb
[5] = molecular target: antigen defined by MAb OV569 on human carcinoma cell surfaces (human); assay: flow cytometry, OV569 supernatant on lung carcinoma line H3963, against an irrelevant MAb
[6] = molecular target: antigen defined by MAb OV569 on human carcinoma cell surfaces (human); assay: flow cytometry, OV569 supernatant on lung carcinoma line H4013, against an irrelevant MAb
[7] = molecular target: antigen defined by MAb OV569 on human carcinoma cell surfaces (human); assay: flow cytometry, OV569 supernatant on ovarian carcinoma line H3538, against an irrelevant MAb
[8] = molecular target: antigen defined by MAb OV569 on human carcinoma cell surfaces (human); assay: flow cytometry, OV569 supernatant on ovarian carcinoma line H3633, against an irrelevant MAb
[9] = molecular target: antigen defined by MAb OV569 on human carcinoma cell surfaces (human); assay: flow cytometry, OV569 supernatant on ovarian carcinoma line H3750, against an irrelevant MAb
[10] = molecular target: antigen defined by MAb OV569 on human carcinoma cell surfaces (human); assay: flow cytometry, OV569 supernatant on ovarian carcinoma line H3759, against an irrelevant MAb
[11] = molecular target: antigen defined by MAb OV569 on human carcinoma cell surfaces (human); assay: flow cytometry, OV569 supernatant on ovarian carcinoma line H3907, against an irrelevant MAb
[12] = molecular target: antigen defined by MAb OV569 on human carcinoma cell surfaces (human); assay: flow cytometry, OV569 supernatant on ovarian carcinoma line H3909, against an irrelevant MAb
[13] = molecular target: antigen defined by MAb OV569 on human carcinoma cell surfaces (human); assay: flow cytometry, OV569 supernatant on ovarian carcinoma line H4002, against an irrelevant MAb
[14] = molecular target: antigen defined by MAb OV569 on human carcinoma cell surfaces (human); assay: flow cytometry, OV569 supernatant on ovarian carcinoma line H4004, against an irrelevant MAb
[15] = molecular target: antigen defined by MAb OV569 on human carcinoma cell surfaces (human); assay: flow cytometry, OV569 supernatant on ovarian carcinoma line H4006, against an irrelevant MAb
[16] = molecular target: antigen defined by MAb OV569 on human carcinoma cell surfaces (human); assay: flow cytometry, OV569 supernatant on ovarian carcinoma line H4007, against an irrelevant MAb
[17] = molecular target: antigen defined by MAb OV569 on human carcinoma cell surfaces (human); assay: flow cytometry, OV569 supernatant on ovarian carcinoma line H4012, against an irrelevant MAb
[18] = molecular target: antigen defined by MAb OV569 on human carcinoma cell surfaces (human); assay: flow cytometry, OV569 supernatant on ovarian carcinoma line H4014, against an irrelevant MAb
[19] = molecular target: antigen defined by MAb OV569 on human carcinoma cell surfaces (human); assay: flow cytometry, OV569 supernatant on ovarian carcinoma line H3659.5, against an irrelevant MAb
[20] = molecular target: antigen defined by MAb OV569 on human carcinoma cell surfaces (human); assay: flow cytometry, OV569 supernatant on ovarian carcinoma line H4010-1, against an irrelevant MAb

monoclonal antibody OV569
LFE(sample)/LFE(control) [1]: 1.3 | LFE(sample)/LFE(control) [2]: 1.25 | LFE(sample)/LFE(control) [3]: 1.59 | LFE(sample)/LFE(control) [4]: 1.33 | LFE(sample)/LFE(control) [5]: 1.11 | LFE(sample)/LFE(control) [6]: 7 | LFE(sample)/LFE(control) [7]: 2.55 | LFE(sample)/LFE(control) [8]: 1 | LFE(sample)/LFE(control) [9]: 2.57 | LFE(sample)/LFE(control) [10]: 6.74 | LFE(sample)/LFE(control) [11]: 3.85 | LFE(sample)/LFE(control) [12]: 3.84 | LFE(sample)/LFE(control) [13]: 8.48 | LFE(sample)/LFE(control) [14]: 2.43 | LFE(sample)/LFE(control) [15]: 2.53 | LFE(sample)/LFE(control) [16]: 8.72 | LFE(sample)/LFE(control) [17]: 1 | LFE(sample)/LFE(control) [18]: 1 | LFE(sample)/LFE(control) [19]: 5.63 | LFE(sample)/LFE(control) [20]: 1.12
